According to patent publication US11235004B2, “Lymphocyte cell lines and uses thereof” (Innovative Cellular Therapeutics Holdings, Ltd., priority 2017, dated 2022):

Experiments:
CAR T-TSHR cells = assay: Culture of CAR T-TSHR cells with soluble TSHR ECD; assay type: cell-based, human
Description: Primary T cells were transduced with lentiviral vectors encoding a TSHR CAR to obtain modified T cells including CAR T cells expressing anti-TSHR (thereafter “CAR T-TSHR cells”). The modified T cells were frozen and stored for 30 days. Techniques related to freezing T cells and thawing frozen T cells may be found in Levine et al., Molecular Therapy—Methods & Clinical Development, Molecular Therapy, Vol 4, Mar. 17, 2017.
The modified Tcells were thawed and divided into two groups and cultured, respectively. CAR T-TSHR cells in Group 1 were cultured with anti-CD3 & CD28 beads and IL2 for 10 days, while CAR T-TSHR cells in Group 2 were cultured with various concentrations of soluble TSHR (e.g., extracellular domain of TSHR, SEQ ID: 34), anti-CD3 & CD28 beads and IL2. For Group 2, 500,000 CAR T-TSHR cells were cultured with 10, 125, 500 ng/ml of soluble TSHR ECD for 14 days. The T cell population was observed by flow cytometry (FIGS. 8 and 9), and cellular morphology of the T cell population was observed under microscopes (FIG. 10).

[1] = system: transduced T cells (ef1a-TK-IRES-rtTA-TRE-hTERT) and non-transduced T cells; assay: Ganciclovir (TK suicide switch) cell growth test; assay type: cell-based, human; conditions: in the presence of GCV
Method: Experimental cells: CD8+CZY-1 SDS-T and NT cell; TK usage: Adult body concentration of 71.45 ng/ml/5000 ng/kg every 24 h injection. In vitro experimental concentration gradients: 357.2 ng/ml, 142.9 ng/ml, 71.45 ng/ml, 35.725 ng/ml, 14.28 ng/ml, 3.6 ng/ml. […] The starting cells were cultured in 200 w cell density of 50 w/ml.
In group three, transduced cells (ef1a-TK-IRES-rtTA-TRE-hTERT) were cultured using media containing Dox (2 μg/ml) and CD19 ECD (1 mg/250,000 CAR T cells). On day 90, various concentrations of GCV was added to the transduced cells. […] DTT cells represent transduced T cells and grew poorly in the presence of GCV.

CAR T19 cells = assay: Culture of CAR T19 cells with or without soluble CD19 ECD; assay type: cell-based, human
Method: The primary T cells were transduced with lentiviral vectors encoding a CD19 CAR to obtain modified T cells including CAR T cells expressing anti-CD19 (thereafter “CAR T19 cells”) on day 1. The modified T cells were divided into two groups and cultured, respectively. CAR T19 cells in Group 1 were cultured with anti-CD3 & CD28 beads and IL2, while CAR T19 cells in Group 2 were cultured with soluble CD19 (e.g., extracellular domain (ECD) of CD19, SEQ ID: 41), anti-CD3 & CD28 beads and IL2. For Group 2, 500,000 CAR T19 cells were cultured with 2 micrograms of soluble CD19 at the starting point, and 4 micrograms of soluble CD19 were used after the CAR T19 cells were grown. The numbers of cells were measured, and ratios between CAR+ cells and the modified T cell population were observed by flow cytometry. The number of CAR copies in the cell population was measured.
T cell phenotypes were further observed. […] Memory cell marker CD62L on CAR+ and CAR-cells were analyzed to determine phenotypes of cultured T cell population.
CAR T19 cells were cultured with CD19 for over 15 days and then were divided into Group 3 and Group 4. CAR T19 cells in Group 3 were continuously cultured with soluble CD19, while CAR T19 cells in Group 4 were cultured without CD19.

CAR T cells = assay: Long-term culture of CAR T cells (groups A-D) with CD19 antigen, flow cytometry; assay type: cell-based, human
Description: Various CARs (A, B, C, and D) were constructed by linking a signal peptide (SEQ ID NO: 38), antigen-specific single-chain variable fragment (scFv) (SEQ ID NO: 55 or 21), hinge domain (SEQ ID NOs: 68, 69, 70, or 71), a transmembrane domain (SEQ ID NO: 72, 73, 74, or 75), one or more co-stimulation domains (SEQ ID NO: 3), CD3-ζ (SEQ ID NO: 40), and EGFP, respectively (See FIGS. 12 and 13).
Primary T cells were obtained from the peripheral blood of volunteers. The magnetic beads negative selection was performed using Pan-T kit from Miltenyi Biotec, Inc. to collect T cells from the peripheral blood. On the second day after primary T cell isolation, the collected T cells were infected with lentivirus containing A, B, C, and D CARs, respectively (i.e., Lenti-CARs-IRES-EGFP) to prepare CAR T cells.
On the 14th day after infection, 15,000 CAR T cells of each group were collected, and cultured with 1000 ng/ml CD 19 antigen (i.e., recombinant human CD19 protein. After 15 days of stimulation, the concentration of CD19 was changed to 400 ng/ml. After 20 days of stimulation, the concentration of CD19 was changed to 200 ng/ml and maintained until about 130 days.
The expression of CARs and cell morphology were observed using flow cytometry on day-2, day 15 (FIGS. 14-17), day 17 (FIG. 20), day 65 and day 130 at the beginning of the stimulus. […]

K562-CD19 = assay: IFN-gamma release of CAR T19 cells co-cultured with K562-CD19; assay type: cell-based; conditions: after 24 hours; Group 2 (pre-cultured with CD19) vs Group 1; E:T 1:1 or 1:10
Method: CAR T19 cells of Group 1 and Group 2 were cultured for about one to three weeks using the protocols described above, respectively. CAR T19 cells were then washed and placed into cultures without CD19. These CAR T19 cells were co-cultured with K562-CD19 (E:T 1:1 or 1:10). After 24 hours, 48 hours, and 72 hours, supernatant of the cultures were collected, and IFN-gamma released by the cells were measured to determine functions of CAR T19 cells.

[2] = Survival and growth of various CAR T cells in vitro (FIG. 43); assay type: cell-based, human; conditions: medium containing CD19 ECD vs no CD19 ECD
Description: In Group 1 (hTert CD19 CAR), the primary T cells obtained from a healthy donor were transduced with a nucleic acid sequence encoding a CD19 CAR and a nucleic acid sequence encoding hTERT. In Group 2 (CD19 CAR), the primary T cells were transduced with the nucleic acid sequence encoding a CD19 CAR. […] CAR T cells are not comprising the nucleic acid sequence encoding hTERT begun to die after about 20 days after cells were transduced with the nucleic acid sequence encoding CAR.

[3] = system: anti-CD19 CAR proliferable T cells; assay: Culture of anti-CD19 CAR proliferable T cells with CD19 ECD; assay type: cell-based, human; conditions: CD19 ECD added to media (1 mg/250,000 CAR T cells)
Description: The primary T cells obtained from a healthy donor were transduced with lentiviral vectors encoding a CD19 CAR (SEQ ID NO: 21) and lentiviral vectors including sequence 1 or 6 as illustrated in FIG. 1 (ef1a-TK-IRES-rtTA-TRE-hTERT: SEQ ID NOs: 1, 2, 3, 4, 5, and 6 in the 5′ to 3′ order or ef1a-rtTA-TRE-hTERT: SEQ ID Nos: 1, 4, 5, and 6 in the 5′ to 3′ order) to obtain transduced T cells including immortalized T cells expressing anti-CD19 CAR (thereafter “anti-CD19 CAR proliferable T cells”) on day one. The anti-CD19 CAR proliferable T cells were divided into various groups and cultured in different media: in the presence of various concentrations of doxycycline (Dox), CD19 extracellular domain (ECD), and/or Ganciclovir (GCV)). In some groups, CD19 ECD (SEQ ID NO: 22) was added to media (1 mg/250,000 CAR T cells), and percentages of cells expressing CD19 CAR increased.

TSHR ECD: soluble TSHR, extracellular domain of TSHR, SEQ ID: 34
ratio (P1) of CAR+ cells and the CAR T-TSHR cells (CAR T-TSHR cells; 500 ng/ml soluble TSHR ECD): significantly increased | cell debris (CAR T-TSHR cells; as the proportion of added antigen (TSHR-ECD) increased): decreased | MFI value (CAR fluorescence) (CAR T-TSHR cells; under 500 ng antigen stimulation): increased | SSC-A dispersible FSC low population (CAR T-TSHR cells; with increasing concentrations of TSHR ECD (10, 125, 500 ng/ml)): decreased

Nc1nc(O)c2ncn(COC(CO)CO)c2n1 [GCV, Ganciclovir]
growth of DTT cells (transduced T cells) [1]: grew poorly | growth of NT (non-transduced T cells) [1]: continued to grow

B1: CD19 ECD: soluble CD19, extracellular domain (ECD) of CD19, SEQ ID: 41 / SEQ ID NO: 22; recombinant human CD19 protein (protein)
chain: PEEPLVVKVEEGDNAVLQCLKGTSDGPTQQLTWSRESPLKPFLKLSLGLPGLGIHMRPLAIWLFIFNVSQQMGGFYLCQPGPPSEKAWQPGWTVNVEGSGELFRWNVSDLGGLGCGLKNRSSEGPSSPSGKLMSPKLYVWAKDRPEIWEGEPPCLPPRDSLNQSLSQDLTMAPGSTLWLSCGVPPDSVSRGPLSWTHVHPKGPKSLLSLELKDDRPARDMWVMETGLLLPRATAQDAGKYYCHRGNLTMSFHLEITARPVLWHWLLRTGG
cells showing the phenotype of memory cells (CD62L hi) (CAR T19 cells; CAR T19 cells of Group 2 (cultured with CD19), day 30): entire or majority cells | cell expansion during the early stage (CAR T19 cells; CD19 ECD added to media vs culturing without CD19 ECD, about day 3 to day 10, non-transduced T cells and CD19 CAR T cells): no apparent increases | ratio of CAR T19 cells and T cells (flow cytometry) (CAR T19 cells; Group 2 (soluble CD19) vs Group 1): higher | copy numbers of CAR T19 cells (qPCR) (CAR T19 cells; Group 2 (soluble CD19) vs Group 1 (no CD19)): higher | ratio of CAR T19 cells and T cells (CAR T19 cells; Group 2, day 30 after the starting point): continued to rise | numbers of CAR+ cells (CAR T19 cells; Group 4 (CD19 removed after over 15 days) vs Group 3 (continued soluble CD19), Day 27): relatively lower | cell expansion rates of CD19 CAR T cells after the early stage (CAR T19 cells; vs cells cultured without the CD19 ECD, after about day 10): increased at a higher rate | percentage of CD4 cells (CAR T cells; CD19-stimulated cells vs parallel untreated): increased | proportion of CAR+EGFP+ cells (CAR T cells; after CD19 stimulation): increase | IFN-gamma released (K562-CD19): significantly higher | cell growth rates of hTERT CAR T cells [2]: higher cell growth rates | percentages of cells expressing CD19 CAR [3]: increased
